The text below walks through data of patent publication US20150322137A1 (EVEC, published 2015).

Test [1] concerns the target T1, F protein of human metapneumovirus strain JPS02-76 (type B1), on infectious virus (human metapneumovirus, strain JPS02-76 …, UniProt Q6WB98 19-539). In words: cell-based or functional assay.
The target in test [2] is T2, F protein of human metapneumovirus strain JPS05-21 (type B2), on infectious virus (human metapneumovirus, strain JPS05-21 …). Description: cell-based or functional assay.
Test [3] addresses T3, F protein of human metapneumovirus strain JPS03-180 (type A1), on infectious virus (human metapneumovirus, strain JPS03-180 …). Description: cell-based or functional assay.
Test [4] deals with T2, F protein of human metapneumovirus …. In words: cell-based or functional assay. This is another data set of the same source.
The target in test [5] is T3, F protein of human metapneumovirus …. In words: cell-based or functional assay. This is another data set of the same source.
In test [6] the target is T4, F protein of human metapneumovirus strain JPS03-178 (type A2), on infectious virus (human metapneumovirus, strain JPS03-178 …). Description: cell-based or functional assay.
Test [7] has as its target T1, F protein of human metapneumovirus …. In words: cell-based or functional assay. This is another data set of the same source.
The target in test [8] is T2, F protein of human metapneumovirus …. Description: cell-based or functional assay. This is another data set of the same source.
Test [9] concerns the target T3, F protein of human metapneumovirus …. Description: cell-based or functional assay. This is another data set of the same source.
The target in test [10] is T4, F protein of human metapneumovirus …. In words: cell-based or functional assay. This is another data set of the same source.
Test [11] deals with T1, F protein of human metapneumovirus …. In words: cell-based or functional assay. This is another data set of the same source.
The target in test [12] is T2, F protein of human metapneumovirus …. In words: cell-based or functional assay. This is another data set of the same source.
In test [13] the target is T3, F protein of human metapneumovirus …. Description: cell-based or functional assay. The source holds these as a separate data set.
Test [14] deals with T4, F protein of human metapneumovirus …. In words: cell-based or functional assay. The source holds these as a separate data set.
In test [15] the target is T1, F protein of human metapneumovirus …. In words: cell-based or functional assay. This is another data set of the same source.
Test [16] has as its target HA-V5-Full, hMPV (JPS02-76) FP with HA-Tag downstream of the signal peptide and linker and V5-Tag do (human metapneumovirus, strain JPS02-76 …). In words: cell fluorescent immunostaining, fixed transfected CHO-K1 cells.
The target of test [17] is FP-TM(-)-His, His-Tag-added hMPV (JPS02-76) FP lacking the transmembrane region (amino acid residues 491 to … (human metapneumovirus, strain JPS02-76 …, UniProt Q6WB98 19-490)). In words: SPR, Biacore T-200; antibody captured by anti-human IgG, FP-TM(-)-His as analyte. In general terms: SPR reads the build-up and loss of mass on a sensor chip optically.
The target of test [18] is T1, F protein of human metapneumovirus …. Description: cell-based or functional assay. This is another data set of the same source.

B1: EV046113 (antibody, human IgG1, kappa, V domains shown)
VH: QVQLVESGGGLVRPGGSLRLSCAASGFTFSDYFMTWIRQAPGKGLEWVSYINSIGSVIFYADSVEGRFTVSRDNTMKSLFLQMNSLTAEDTAVYYCARSCRISYGASGGFSCGMDVWGQGTPVTVSS
VL: DIQMTQSPSSLSASVGDRVTITCQASQSIRENINWYQQKTGKAPKLLIYDASILETGVPSRFSGSGSGTHFTFTISSLQPEDMATYYCQQYHHLITFGQGTRLDIKR
Consider B1, for which the results for the “IC50, neutralizing activity (hMPV infection of LLC-MK2 cells)” value (from here on “IC50 … (hMPV infection of LLC-MK2 cells)”) in test [1], in test [2] and in test [3] were 0.68 µg/mL, 0.39 µg/mL and 0.38 µg/mL, respectively. Besides, the “IC50, neutralizing activity (hMPV infection of LLC-MK2 cells; GraphPad Prism 6)” value in [4] came to 0.491 µg/mL; in [5] it was 0.418 µg/mL; in test [6], 0.645 µg/mL. The “IC60, neutralizing activity (hMPV infection of LLC-MK2 cells; GraphPad Prism 6)” value (shortened to “IC60, neutralizing activity”) in test [7] turned out to be 0.819 µg/mL; in test [8], 0.652 µg/mL; in test [9] it was 0.522 µg/mL; in [10] it was 0.76 µg/mL. In addition, the “IC90, neutralizing activity (hMPV infection of LLC-MK2 cells; GraphPad Prism 6)” value (“IC90, neutralizing activity” for short) in test [11] was 1.48 µg/mL; in [12] it was 2.29 µg/mL; in [13] it was 1.39 µg/mL; in test [14], 1.56 µg/mL. For the same molecule, in test [15], the “IC50, cell-to-cell spread inhibitory activity (LLC-MK2 cells stably expressing TMPRSS2)” value worked out at 0.108 µg/mL. Besides, the “IC90, cell-to-cell spread inhibitory activity (LLC-MK2 cells stably expressing TMPRSS2)” value in test [15] turned out to be 0.707 µg/mL. Further, the binding result in test [16] was “binds”. Besides, binding in test [17] was put at a Kd of 0.265 nM. In test [17], the koff (in general, the first-order rate constant of dissociation) stood at 0.000123 s⁻¹. Also, in test [17], the kon (commonly a measure of how fast the partners come together) came out at 463000 M⁻¹ s⁻¹.

B2: EV046120 (antibody, human IgG1, lambda, V domains shown)
VH: EVQLVESGGGLVKPGGSLRLSCAASGFTFSSYSMNWVRQAPGKGLEWVSSISSSSSYIYYADSLKGRFTVSRDNAKKSLYLQMNSLRAEDTAVYYCARVDYGTNSEVGRFDPWGQGTLVTVSS
VL: QSVLTQPPSVSGTPGQRVTISCTGSSSNIGAGYAVHWYQQLPGTAPKLLIYDSINRPSGVPDRFSGSKSGTSASLAITGLQTEDEADYYCHSYDRSLSGSVFGGGTKLTVLG
With B2, the “IC50 … (hMPV infection of LLC-MK2 cells)” value in test [2] stood at 0.24 µg/mL; in [3], 0.32 µg/mL. Also, the “IC50, neutralizing activity (hMPV infection of LLC-MK2 cells; GraphPad Prism 6)” value in [18] came to 0.241 µg/mL; in test [4], 0.249 µg/mL; in test [5] it was 0.3 µg/mL; in test [6] it was 0.0971 µg/mL. For the same molecule, the “IC60, neutralizing activity” value in test [7] came to 0.344 µg/mL; in [8], 0.301 µg/mL; in test [9], 0.421 µg/mL; in test [10], 0.138 µg/mL. The “IC90, neutralizing activity” value in test [11] turned out to be 1.65 µg/mL; in [12] it was 0.694 µg/mL; in test [13], 1.88 µg/mL; in test [14] it was 0.653 µg/mL. The “IC50, cell-to-cell spread inhibitory activity (LLC-MK2 cells stably expressing TMPRSS2)” value in test [15] stood at 0.0132 µg/mL. Further, the “IC90, cell-to-cell spread inhibitory activity (LLC-MK2 cells stably expressing TMPRSS2)” value in test [15] came out at 0.0669 µg/mL.

B3: EV046116 (antibody, human IgG1, kappa, V domains shown)
VH: QVQLQESGPGLVKPSETLSLTCTVSGGSISRDYWSFIRQPAGKGLEWIGRIYHNGDTNYNPSLKSRVTMSQDTSKNQFFLRLRHVTAADTAVYYCAREGSAGTFGQADWGQGTLVIVYS
VL: EIVMTQSPATLSVSPGERATLSCRASQSISNNLAWYQQKPGQAPRLLIYGASTRATGIPARFSGGGSGTEFTLTISSLQSEDFAVYYCQQYENWLLYTFGQGTKLEIKR
B3: the “IC50 … (hMPV infection of LLC-MK2 cells)” value in [1] came out at 0.25 µg/mL; in [2], 0.25 µg/mL; in test [3], 0.31 µg/mL. In addition, the results for the “IC50, neutralizing activity (hMPV infection of LLC-MK2 cells; GraphPad Prism 6)” value in test [4], in test [5] and in test [6] were 0.279 µg/mL, 0.351 µg/mL and 0.19 µg/mL, respectively. The “IC60, neutralizing activity” value in test [7] turned out to be 0.497 µg/mL; in test [8] it was 0.341 µg/mL; in [9], 0.428 µg/mL; in [10], 0.247 µg/mL. The “IC90, neutralizing activity” value in [11] was 3 µg/mL; in test [12] it was 0.828 µg/mL; in [13], 1.03 µg/mL; in test [14], 0.8 µg/mL. Moreover, the “IC50, cell-to-cell spread inhibitory activity (LLC-MK2 cells stably expressing TMPRSS2)” value in [15] amounted to 0.054 µg/mL. Further, the “IC90, cell-to-cell spread inhibitory activity (LLC-MK2 cells stably expressing TMPRSS2)” value in test [15] came to 0.132 µg/mL. In addition, the Kd (as a rule, the equilibrium constant for the complex coming apart) in [17] stood at 1.62 nM. This molecule also displayed a koff in test [17] of 0.000408 s⁻¹. The association rate constant (kon) in test [17] worked out at 252000 M⁻¹ s⁻¹.
